Test results as given in patent publication US20210060185.

B1: calpain-1 from porcine erythrocytes (protein)
chain 1: MAEEVITPVYCTGVSAQVQKLRAKELGLGRHENAIKYLGQDYEQLRAHCLQSGSLFRDEAFPPVPQSLGFKELGPNSSKTYGVKWKRPTELFSNPQFIVDGATRTDICQGALGDCWLLAAIASLTLNDTLLHRVVPHGQSFQNGYAGIFHFQLWQFGEWVDVVVDDLLPTKDGKLVFVHSAQGNEFWSALLEKAYAKVNGSYEALSGGSTSEGFEDFTGGVTEWYELRKAPSDLYSIILKALERGSLLGCSIDISSVLDMEAVTFKKLVKGHAYSVTGAKQVNYQGQMVNLIRMRNPWGEVEWTGAWSDGSSEWNGVDPYQRDQLRVRMEDGEFWMSFRDFLREFTRLEICNLTPDALKSQRVRNWNTTLYEGTWRRGSTAGGCRNYPATFWVNPQFKIRLEETDDPEDDYGGRESGCSFVLALMQKHRRRERRFGRDMETIGFAVYEVPPELVGQPVHLKRDFFLANASRARSEQFINLREVSTRFRLPPGEYVVVPSTFEPNKEGDFVLRFFSEKKAGTQELDDQVQAILPDEQVLSEEEIDENFKALFRQLAGEDMEISVRELRTILNRIISKHKDLRTKGFSLESCRSMVNLMDRDGNGKLGLVEFNILWNRIRNYLSIFRKFDLDKSGSMSAYEMRMAIESAGFKLNKKLFELIITRYSEPDLAVDFDNFVCCLVRLETMFRFFKTLDTDLDGVVTFDLFKWLQLTMFA
chain 2: MFLVNSFLKGGGGGGGGGGGLGGGLGNVLGGLISGAGGGGGGGGGGGGGGGGGGTAMRILGGVISAISEAAAQYNPEPPPPRTHYSNIEANESEEVRQFRRLFAQLAGDDMEVSATELMNILNKVVTRHPDLKTDGFGIDTCRSMVAVMDSDTTGKLGFEEFKYLWNNIKKWQAIYKQFDVDRSGTIGSSELPGAFEAAGFHLNEHLYSMIIRRYSDEGGNMDFDNFISCLVRLDAMFRAFKSLDKDGTGQIQVNIQEWLQLTMYS
B2: recombinant TEV protease (Tobacco etch virus protease) (protein)
chain: GESLFKGPRDYNPISSTICHLTNESDGHTTSLYGIGFGPFIITNKHLFRRNNGTLLVQSLHGVFKVKNTTTLQQHLIDGRDMIIIRMPKDFPPFPQKLKFREPQREERICLVTTNFQTKSMSSMVSDTSCTFPSSDGIFWKHWIQTKDGQCGSPLVSTRDGFIVGIHSASNFTNTNNYFTSVPKNFMELLTNQEAQQWVSGWRLNADSVLWGGHKVFMSKPEEPFQPVKEATQLMNELVYSQ

Tests used:
[1] = target: T1, C-His Ana GvpC with calpain cleavage site (engineered Anabaena flos-aquae GvpC, calpain-sensitive)
T1 chain: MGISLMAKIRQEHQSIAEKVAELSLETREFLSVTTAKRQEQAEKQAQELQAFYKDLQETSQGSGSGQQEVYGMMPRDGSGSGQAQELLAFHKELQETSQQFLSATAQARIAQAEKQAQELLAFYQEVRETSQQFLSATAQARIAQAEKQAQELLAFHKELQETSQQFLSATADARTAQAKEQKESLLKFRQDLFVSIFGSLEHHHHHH

WT C-His Ana GvpC = target: T2, WT C-His Ana GvpC
T2 chain: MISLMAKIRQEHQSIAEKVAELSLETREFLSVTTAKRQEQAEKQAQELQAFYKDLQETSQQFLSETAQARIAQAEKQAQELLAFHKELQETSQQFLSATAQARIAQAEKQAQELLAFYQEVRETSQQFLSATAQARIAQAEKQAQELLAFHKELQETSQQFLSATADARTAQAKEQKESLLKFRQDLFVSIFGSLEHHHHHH

[2] = target: T3, C-His Ana GvpC with TEV cleavage site (engineered Anabaena flos-aquae GvpC, TEV-sensitive)
T3 chain: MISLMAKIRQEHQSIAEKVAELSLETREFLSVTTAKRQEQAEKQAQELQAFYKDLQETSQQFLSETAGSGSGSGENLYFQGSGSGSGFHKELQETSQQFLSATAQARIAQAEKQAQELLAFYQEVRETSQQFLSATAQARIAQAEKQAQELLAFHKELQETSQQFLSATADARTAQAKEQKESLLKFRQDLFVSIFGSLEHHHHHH

| Protein | cleavage on Coomassie-stained SDS-PAGE [1] | collapse pressure after exposure to calpain and calcium (FIG. 8B) [1] | hydrostatic collapse pressure (pressurized absorbance spectroscopy) [1] | nonlinear (x-AM) ultrasound contrast [1] | nonlinear contrast to noise ratio with calpain and calcium (FIG. 8G) [1] | cleavage on SDS-PAGE, GV collapse pressure and ultrasound response (WT C-His Ana GvpC) | cleavage on Coomassie-stained SDS-PAGE [2] | hydrostatic collapse pressure midpoint (pressurized absorbance spectroscopy) [2] | nonlinear (x-AM) ultrasound contrast-to-noise ratio enhancement [2] | hydrostatic collapse pressure, nonlinear acoustic contrast and cleavage on SDS-PAGE (WT C-His Ana GvpC) |
| --- | --- | --- | --- | --- | --- | --- | --- | --- | --- | --- |
| B1 | Electrophoretic analysis confirmed cleavage and partial dissociation of the cleaved fragments from the GV surface | ˜290 kPa compared to 336-344 kPa | an approximately 50 kPa decrease in hydrostatic collapse pressure in the presence of the enzyme and its ionic activator | the maximal nonlinear sensor contrast of GVScalp of approximately 7 dB | (+Calp/+Ca^2+) shows a stronger nonlinear ratio (CNR=10.3) | showed no proteolytic cleavage, change in GV collapse pressure or ultrasound response, after incubation with calcium-activated calpain | – | – | – | – |
| B2 | – | – | – | – | – | – | gel electrophoresis of GVSTEV after exposure to active TEV resulted in the appearance of the two cleaved GvpC fragments and a significant reduction in the intact GvpC band | ˜70 kPa reduction in its collapse pressure midpoint upon incubation with the active TEV protease | a maximal contrast-to-noise ratio (CNR) enhancement of ˜7 dB at an applied acoustic pressure of 438 kPa | showed no difference in their hydrostatic collapse pressure or nonlinear acoustic contrast in response to TEV protease (FIGS. 7I-7K), and no wild-type GvpC cleavage was seen upon gel electrophoresis |
